Reference: publication PMC7954794 (2021)

B1: S. cerevisiae Abp1 (full length; SH3 domain 535-592 mutated) / Hua2 (parent complex)
chain 1: MALEPIDYTTHSREIDAEYLKIVRGSDPDTTWLIISPNAKKEYEPESTGSSFHDFLQLFDETKVQYGLARVSPPGSDVEKIIIIGWCPDSAPLKTRASFAANFAAVANNLFKGYHVQVTARDEDDLDENELLMKISNAAGARYSIQTSSKQQGKASTPPVKKSFTPSKSPAPVSKKEPVKTPSPAPAAKISSRVNDNNDDDDWNEPELKERDFDQAPLKPNQSSYKPIGKIDLQKVIAEEKAKEDPRLVQKPTAAGSKIDPSSDIANLKNESKLKRDSEFNSFLGTTKPPSMTESSLKNDDDKVIKGFRNEKSPAQLWAERKAKQNSGNAETKAEAPKPEVPEDEPEGEPDVKDLKSKFEGLAASEKEEEEMENKFAPPPKKSEPTIISPKPFSKPQEPVKAEEAEQPKTDYKKIGNPLPGMHIEADNEEEPEENDDDWDDDEDEAAQPPLPSRNVASGAPVQKEEPEQEEIAPSLPSRNSIPAPKQEEAPEQAPEEEIEEEAEEAAPQLPSRSSAAPPPPPRRATPEKKPKENPWATAEYDYDAAEDNELTFVENDKIINIEFVDDDWWLGELEKDGSKGLFPSNYVSLGN
chain 2: MQQTKFGKMYLDHDSVVEYSEDEIVEADRITLGYKKRLSMIENQMRHLLEDFSLDVQQIEPILADLQKYYDAFLQLLQKRNKSLQCKRSTHQPVPSPMNSQTSTNAKVNLSGKLMKFQLNSVQKFDEENILRILQNKIEFEHYFQIDKGKKQKVLLLAVYQCLNGPTRLHKVLNIEGIIHNNSIRTILGKQVSSSKWTVFLYDVKLVLLAHRQDVPNLETSKMIVRYGDLFPCALYFKDHTAY

Variants of: B1
Assay: DHFR protein-fragment complementation in yeast (Abp1-DHFR F[1,2] x partner-DHFR F[3]), deep mutational scanning, second methotrexate selection vs reference; S. cerevisiae, DHFR-PCA selection in liquid with methotrexate at 30 C, two 72 h selections (the score uses the second); reference = the pre-selection culture
chain 1 K576A was tested, and the screen value was -0.373 DMS score: mean over two replicates of log2(f_test/f_ref + 0.5)/ln 2, minus the synonymous-codon median (not a log2 ….
chain 1 K576E was tested, and the screen value was -0.947 DMS score: mean over two replicates of log2(f_test/f_ref + 0.5)/ln 2, minus the synonymous-codon median (not a log2 ….
For chain 1 K576C, the screen value was -0.496 DMS score: mean over two replicates of log2(f_test/f_ref + 0.5)/ln 2, minus the synonymous-codon median (not a log2 ….
chain 1 N592I was tested, and the screen value was 0.311 DMS score: mean over two replicates of log2(f_test/f_ref + 0.5)/ln 2, minus the synonymous-codon median (not a log2 ….
chain 1 N592K was tested, and the screen value was -0.463 DMS score: mean over two replicates of log2(f_test/f_ref + 0.5)/ln 2, minus the synonymous-codon median (not a log2 ….
chain 1 N592L was tested, and the screen value was 0.472 DMS score: mean over two replicates of log2(f_test/f_ref + 0.5)/ln 2, minus the synonymous-codon median (not a log2 ….
For chain 1 N592P, the screen value was 0.755 DMS score: mean over two replicates of log2(f_test/f_ref + 0.5)/ln 2, minus the synonymous-codon median (not a log2 ….
chain 1 N592V was tested, and the screen value was 0.252 DMS score: mean over two replicates of log2(f_test/f_ref + 0.5)/ln 2, minus the synonymous-codon median (not a log2 ….
chain 1 N592R was tested, and the screen value was 0.515 DMS score: mean over two replicates of log2(f_test/f_ref + 0.5)/ln 2, minus the synonymous-codon median (not a log2 ….
With chain 1 N592Y the screen value was 0.405 DMS score: mean over two replicates of log2(f_test/f_ref + 0.5)/ln 2, minus the synonymous-codon median (not a log2 ….
chain 1 I560F was tested, and the screen value was -0.852 DMS score: mean over two replicates of log2(f_test/f_ref + 0.5)/ln 2, minus the synonymous-codon median (not a log2 ….
In the case of chain 1 I560K, the screen value is reported as 0.427 DMS score: mean over two replicates of log2(f_test/f_ref + 0.5)/ln 2, minus the synonymous-codon median (not a log2 ….
chain 1 I560E was tested, and the screen value was -0.924 DMS score: mean over two replicates of log2(f_test/f_ref + 0.5)/ln 2, minus the synonymous-codon median (not a log2 ….
For chain 1 I560R, the screen value was 0.102 DMS score: mean over two replicates of log2(f_test/f_ref + 0.5)/ln 2, minus the synonymous-codon median (not a log2 ….
In the case of chain 1 I560T, the screen value is reported as -0.415 DMS score: mean over two replicates of log2(f_test/f_ref + 0.5)/ln 2, minus the synonymous-codon median (not a log2 ….
For chain 1 A539V, the screen value was -0.172 DMS score: mean over two replicates of log2(f_test/f_ref + 0.5)/ln 2, minus the synonymous-codon median (not a log2 ….
In the case of chain 1 E555K, the screen value is reported as 0.347 DMS score: mean over two replicates of log2(f_test/f_ref + 0.5)/ln 2, minus the synonymous-codon median (not a log2 ….
With chain 1 E555V the screen value was -0.0654 DMS score: mean over two replicates of log2(f_test/f_ref + 0.5)/ln 2, minus the synonymous-codon median (not a log2 ….
For chain 1 E555L, the screen value was -0.165 DMS score: mean over two replicates of log2(f_test/f_ref + 0.5)/ln 2, minus the synonymous-codon median (not a log2 ….
For chain 1 E555C, the screen value was -0.0642 DMS score: mean over two replicates of log2(f_test/f_ref + 0.5)/ln 2, minus the synonymous-codon median (not a log2 ….
In the case of chain 1 E555T, the screen value is reported as 0.557 DMS score: mean over two replicates of log2(f_test/f_ref + 0.5)/ln 2, minus the synonymous-codon median (not a log2 ….
In the case of chain 1 S589E, the screen value is reported as 1.15 DMS score: mean over two replicates of log2(f_test/f_ref + 0.5)/ln 2, minus the synonymous-codon median (not a log2 ….
For chain 1 S589K, the screen value was 0.37 DMS score: mean over two replicates of log2(f_test/f_ref + 0.5)/ln 2, minus the synonymous-codon median (not a log2 ….
In the case of chain 1 S589M, the screen value is reported as -0.0692 DMS score: mean over two replicates of log2(f_test/f_ref + 0.5)/ln 2, minus the synonymous-codon median (not a log2 ….
chain 1 S589A was tested, and the screen value was 0.074 DMS score: mean over two replicates of log2(f_test/f_ref + 0.5)/ln 2, minus the synonymous-codon median (not a log2 ….
For chain 1 S589V, the screen value was 0.593 DMS score: mean over two replicates of log2(f_test/f_ref + 0.5)/ln 2, minus the synonymous-codon median (not a log2 ….
In the case of chain 1 N561H, the screen value is reported as -0.956 DMS score: mean over two replicates of log2(f_test/f_ref + 0.5)/ln 2, minus the synonymous-codon median (not a log2 ….
In the case of chain 1 V554Q, the screen value is reported as 0.94 DMS score: mean over two replicates of log2(f_test/f_ref + 0.5)/ln 2, minus the synonymous-codon median (not a log2 ….
In the case of chain 1 E575D, the screen value is reported as -0.0843 DMS score: mean over two replicates of log2(f_test/f_ref + 0.5)/ln 2, minus the synonymous-codon median (not a log2 ….
In the case of chain 1 E575K, the screen value is reported as 0.0377 DMS score: mean over two replicates of log2(f_test/f_ref + 0.5)/ln 2, minus the synonymous-codon median (not a log2 ….
In the case of chain 1 E575Y, the screen value is reported as -0.704 DMS score: mean over two replicates of log2(f_test/f_ref + 0.5)/ln 2, minus the synonymous-codon median (not a log2 ….
With chain 1 E575H the screen value was 0.233 DMS score: mean over two replicates of log2(f_test/f_ref + 0.5)/ln 2, minus the synonymous-codon median (not a log2 ….
With chain 1 A546Q the screen value was 1.19 DMS score: mean over two replicates of log2(f_test/f_ref + 0.5)/ln 2, minus the synonymous-codon median (not a log2 ….
In the case of chain 1 A546F, the screen value is reported as -0.502 DMS score: mean over two replicates of log2(f_test/f_ref + 0.5)/ln 2, minus the synonymous-codon median (not a log2 ….
For chain 1 A546R, the screen value was -1.4 DMS score: mean over two replicates of log2(f_test/f_ref + 0.5)/ln 2, minus the synonymous-codon median (not a log2 ….
chain 1 A546M was tested, and the screen value was -0.41 DMS score: mean over two replicates of log2(f_test/f_ref + 0.5)/ln 2, minus the synonymous-codon median (not a log2 ….
chain 1 A546Y was tested, and the screen value was -0.447 DMS score: mean over two replicates of log2(f_test/f_ref + 0.5)/ln 2, minus the synonymous-codon median (not a log2 ….
For chain 1 F564Y, the screen value was 0.127 DMS score: mean over two replicates of log2(f_test/f_ref + 0.5)/ln 2, minus the synonymous-codon median (not a log2 ….
For chain 1 Y541A, the screen value was -1.6 DMS score: mean over two replicates of log2(f_test/f_ref + 0.5)/ln 2, minus the synonymous-codon median (not a log2 ….
chain 1 L574T was tested, and the screen value was -0.934 DMS score: mean over two replicates of log2(f_test/f_ref + 0.5)/ln 2, minus the synonymous-codon median (not a log2 ….
With chain 1 L574I the screen value was -0.989 DMS score: mean over two replicates of log2(f_test/f_ref + 0.5)/ln 2, minus the synonymous-codon median (not a log2 ….
chain 1 L574C was tested, and the screen value was -0.496 DMS score: mean over two replicates of log2(f_test/f_ref + 0.5)/ln 2, minus the synonymous-codon median (not a log2 ….
In the case of chain 1 L582F, the screen value is reported as 0.039 DMS score: mean over two replicates of log2(f_test/f_ref + 0.5)/ln 2, minus the synonymous-codon median (not a log2 ….
For chain 1 L582M, the screen value was -2.34 DMS score: mean over two replicates of log2(f_test/f_ref + 0.5)/ln 2, minus the synonymous-codon median (not a log2 ….
chain 1 E563S was tested, and the screen value was -0.411 DMS score: mean over two replicates of log2(f_test/f_ref + 0.5)/ln 2, minus the synonymous-codon median (not a log2 ….
chain 1 E563Q was tested, and the screen value was -0.159 DMS score: mean over two replicates of log2(f_test/f_ref + 0.5)/ln 2, minus the synonymous-codon median (not a log2 ….
In the case of chain 1 E563K, the screen value is reported as -0.922 DMS score: mean over two replicates of log2(f_test/f_ref + 0.5)/ln 2, minus the synonymous-codon median (not a log2 ….
In the case of chain 1 E563H, the screen value is reported as -1.36 DMS score: mean over two replicates of log2(f_test/f_ref + 0.5)/ln 2, minus the synonymous-codon median (not a log2 ….
With chain 1 G578K the screen value was -0.619 DMS score: mean over two replicates of log2(f_test/f_ref + 0.5)/ln 2, minus the synonymous-codon median (not a log2 ….
For chain 1 G578M, the screen value was -0.96 DMS score: mean over two replicates of log2(f_test/f_ref + 0.5)/ln 2, minus the synonymous-codon median (not a log2 ….
chain 1 W536E was tested, and the screen value was -0.841 DMS score: mean over two replicates of log2(f_test/f_ref + 0.5)/ln 2, minus the synonymous-codon median (not a log2 ….
chain 1 W536H was tested, and the screen value was -0.883 DMS score: mean over two replicates of log2(f_test/f_ref + 0.5)/ln 2, minus the synonymous-codon median (not a log2 ….
chain 1 D568V was tested, and the screen value was -2.62 DMS score: mean over two replicates of log2(f_test/f_ref + 0.5)/ln 2, minus the synonymous-codon median (not a log2 ….
In the case of chain 1 D568E, the screen value is reported as -1.5 DMS score: mean over two replicates of log2(f_test/f_ref + 0.5)/ln 2, minus the synonymous-codon median (not a log2 ….
chain 1 D568W was tested, and the screen value was -2.95 DMS score: mean over two replicates of log2(f_test/f_ref + 0.5)/ln 2, minus the synonymous-codon median (not a log2 ….
With chain 1 I559V the screen value was -0.155 DMS score: mean over two replicates of log2(f_test/f_ref + 0.5)/ln 2, minus the synonymous-codon median (not a log2 ….
In the case of chain 1 T538V, the screen value is reported as 0.524 DMS score: mean over two replicates of log2(f_test/f_ref + 0.5)/ln 2, minus the synonymous-codon median (not a log2 ….
With chain 1 T538K the screen value was -0.703 DMS score: mean over two replicates of log2(f_test/f_ref + 0.5)/ln 2, minus the synonymous-codon median (not a log2 ….
In the case of chain 1 T538R, the screen value is reported as 0.298 DMS score: mean over two replicates of log2(f_test/f_ref + 0.5)/ln 2, minus the synonymous-codon median (not a log2 ….
chain 1 T538C was tested, and the screen value was -0.268 DMS score: mean over two replicates of log2(f_test/f_ref + 0.5)/ln 2, minus the synonymous-codon median (not a log2 ….
With chain 1 T538Y the screen value was -0.148 DMS score: mean over two replicates of log2(f_test/f_ref + 0.5)/ln 2, minus the synonymous-codon median (not a log2 ….
With chain 1 Y587L the screen value was 1.47 DMS score: mean over two replicates of log2(f_test/f_ref + 0.5)/ln 2, minus the synonymous-codon median (not a log2 ….
chain 1 Y587C was tested, and the screen value was -1.01 DMS score: mean over two replicates of log2(f_test/f_ref + 0.5)/ln 2, minus the synonymous-codon median (not a log2 ….
With chain 1 Y587K the screen value was -2.96 DMS score: mean over two replicates of log2(f_test/f_ref + 0.5)/ln 2, minus the synonymous-codon median (not a log2 ….
In the case of chain 1 Y587T, the screen value is reported as -2.4 DMS score: mean over two replicates of log2(f_test/f_ref + 0.5)/ln 2, minus the synonymous-codon median (not a log2 ….
In the case of chain 1 Y587S, the screen value is reported as -2.24 DMS score: mean over two replicates of log2(f_test/f_ref + 0.5)/ln 2, minus the synonymous-codon median (not a log2 ….
With chain 1 N556R the screen value was 0.377 DMS score: mean over two replicates of log2(f_test/f_ref + 0.5)/ln 2, minus the synonymous-codon median (not a log2 ….
For chain 1 N556E, the screen value was -0.0705 DMS score: mean over two replicates of log2(f_test/f_ref + 0.5)/ln 2, minus the synonymous-codon median (not a log2 ….
In the case of chain 1 N556Q, the screen value is reported as -0.244 DMS score: mean over two replicates of log2(f_test/f_ref + 0.5)/ln 2, minus the synonymous-codon median (not a log2 ….
In the case of chain 1 N556F, the screen value is reported as -0.0258 DMS score: mean over two replicates of log2(f_test/f_ref + 0.5)/ln 2, minus the synonymous-codon median (not a log2 ….
chain 1 P535N was tested, and the screen value was 0.729 DMS score: mean over two replicates of log2(f_test/f_ref + 0.5)/ln 2, minus the synonymous-codon median (not a log2 ….
chain 1 P535G was tested, and the screen value was -0.0677 DMS score: mean over two replicates of log2(f_test/f_ref + 0.5)/ln 2, minus the synonymous-codon median (not a log2 ….
chain 1 P535C was tested, and the screen value was 1.46 DMS score: mean over two replicates of log2(f_test/f_ref + 0.5)/ln 2, minus the synonymous-codon median (not a log2 ….
For chain 1 P535Y, the screen value was 0.518 DMS score: mean over two replicates of log2(f_test/f_ref + 0.5)/ln 2, minus the synonymous-codon median (not a log2 ….
With chain 1 P535F the screen value was 0.0686 DMS score: mean over two replicates of log2(f_test/f_ref + 0.5)/ln 2, minus the synonymous-codon median (not a log2 ….
